Test results reported in US20030092619A1.

Biological target: full length STAT6 (human) (UniProt P42226)
Assay: cell-based or functional assay

full length STAT6 (human), sequence (P42226 2-847): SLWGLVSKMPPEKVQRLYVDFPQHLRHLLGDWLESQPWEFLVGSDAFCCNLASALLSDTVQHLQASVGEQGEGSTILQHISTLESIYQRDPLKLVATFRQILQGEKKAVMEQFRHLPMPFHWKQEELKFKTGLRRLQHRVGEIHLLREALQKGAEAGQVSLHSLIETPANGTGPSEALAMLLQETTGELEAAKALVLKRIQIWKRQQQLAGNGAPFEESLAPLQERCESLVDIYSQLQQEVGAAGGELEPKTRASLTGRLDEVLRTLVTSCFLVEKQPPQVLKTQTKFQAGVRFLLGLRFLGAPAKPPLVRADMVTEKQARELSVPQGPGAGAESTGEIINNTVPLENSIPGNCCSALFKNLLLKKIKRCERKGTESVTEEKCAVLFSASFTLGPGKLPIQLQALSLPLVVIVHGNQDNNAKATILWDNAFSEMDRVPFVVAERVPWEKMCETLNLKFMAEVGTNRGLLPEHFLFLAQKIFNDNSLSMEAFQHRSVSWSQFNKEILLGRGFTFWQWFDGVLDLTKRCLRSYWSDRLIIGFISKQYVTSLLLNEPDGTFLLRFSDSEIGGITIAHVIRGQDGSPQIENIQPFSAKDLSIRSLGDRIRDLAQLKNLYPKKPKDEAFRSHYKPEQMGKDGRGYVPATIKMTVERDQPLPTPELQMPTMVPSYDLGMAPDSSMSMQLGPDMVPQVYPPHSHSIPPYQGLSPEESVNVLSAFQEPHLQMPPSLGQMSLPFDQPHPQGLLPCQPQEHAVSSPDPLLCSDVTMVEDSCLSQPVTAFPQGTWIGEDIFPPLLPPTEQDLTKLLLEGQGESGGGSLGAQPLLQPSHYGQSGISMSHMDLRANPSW

luciferase reporter with multimerized STAT6 response elements, HepG2 cells, IL-4 induced: < 3 fold
Substance: NCoA-1 (nuclear coactivator 1), full length (from UniProt P70365 2-1447)
